Values belong to the binder of their own block, whether it stands above or below them.
How the values were obtained:
[1] = target: KEAP1 (wild-type full-length), His-tagged (human) (UniProt Q14145); assay: AlphaScreen; 19.2 nM FLAG-NRF2, 150 nM His-KEAP1; signal against NRF2 only; control for I86V
[2] = target: KEAP1 (wild-type full-length), His-tagged (human) (UniProt Q14145); assay: AlphaScreen, all variants on one plate; upper condition (38.4 nM NRF2), KEAP1 150 nM; the reference itself
[3] = target: KEAP1 (wild-type full-length), His-tagged (human) (UniProt Q14145); assay: AlphaScreen; NRF2 wt isoform 1 38.4 nM, KEAP1 150 nM; set as the 100 % reference for I86V
[4] = target: KEAP1 (wild-type full-length), His-tagged (human) (UniProt Q14145); assay: AlphaScreen; FLAG-NRF2 wt isoform 1 19.2 nM, His-KEAP1 150 nM; Repeat 2; positive control for Q75R
[5] = target: KEAP1 (wild-type full-length), His-tagged (human) (UniProt Q14145); assay: AlphaScreen; 2.4 nM FLAG-NRF2, 150 nM His-KEAP1; signal against NRF2 only; control for I28V
[6] = target: KEAP1 (wild-type full-length), His-tagged (human) (UniProt Q14145); assay: AlphaScreen; NRF2 wt isoform 1 1228.8 nM, KEAP1 150 nM; signal against NRF2-only control; control for Q75R
[7] = target: KEAP1 (wild-type full-length), His-tagged (human) (UniProt Q14145); assay: AlphaScreen; 19.2 nM FLAG-NRF2, 150 nM His-KEAP1; Repeat 2 (same value as in Table 26)
[8] = target: KEAP1 (wild-type full-length), His-tagged (human) (UniProt Q14145); assay: AlphaScreen; FLAG-NRF2 wt isoform 1 4.8 nM, His-KEAP1 150 nM; Rep 2; positive control for Q75R
[9] = target: KEAP1 (wild-type full-length), His-tagged (human) (UniProt Q14145); assay: AlphaScreen; 4.8 nM FLAG-NRF2, 150 nM His-KEAP1; Rep 2; control for I28V
[10] = target: KEAP1 (wild-type full-length), His-tagged (human) (UniProt Q14145); assay: AlphaScreen; 38.4 nM FLAG-NRF2, 150 nM His-KEAP1; Rep 1; control for I86V
[11] = target: KEAP1 (wild-type full-length), His-tagged (human) (UniProt Q14145); assay: AlphaScreen; FLAG-NRF2 wt isoform 1 38.4 nM, His-KEAP1 150 nM; Repeat 1; positive control for Q75R
[12] = target: KEAP1 (wild-type full-length), His-tagged (human) (UniProt Q14145); assay: AlphaScreen; FLAG-NRF2 wt isoform 1 9.6 nM, His-KEAP1 150 nM; Rep 1; positive control for I86V
[13] = target: KEAP1 (wild-type full-length), His-tagged (human) (UniProt Q14145); assay: AlphaScreen; 4.8 nM FLAG-NRF2, 150 nM His-KEAP1; signal against NRF2 only; control for I86V
[14] = target: KEAP1 (wild-type full-length), His-tagged (human) (UniProt Q14145); assay: AlphaScreen; 76.8 nM FLAG-NRF2, 150 nM His-KEAP1; Rep 2; control for I28V
[15] = target: KEAP1 (wild-type full-length), His-tagged (human) (UniProt Q14145); assay: AlphaScreen; FLAG-NRF2 I86V 9.6 nM, His-KEAP1 150 nM; Rep 2
[16] = target: KEAP1 (wild-type full-length), His-tagged (human) (UniProt Q14145); assay: AlphaScreen; NRF2 I86V 76.8 nM, KEAP1 150 nM; signal against NRF2-only control
[17] = target: KEAP1 (wild-type full-length), His-tagged (human) (UniProt Q14145); assay: AlphaScreen; NRF2 I86V 9.6 nM, KEAP1 150 nM; signal against NRF2-only control
[18] = target: KEAP1 (wild-type full-length), His-tagged (human) (UniProt Q14145); assay: AlphaScreen; FLAG-NRF2 I86V 9.6 nM, His-KEAP1 150 nM; Rep 3
[19] = target: KEAP1 (wild-type full-length), His-tagged (human) (UniProt Q14145); assay: AlphaScreen; 153.6 nM FLAG-NRF2, 150 nM His-KEAP1; Rep 1
[20] = target: KEAP1 (wild-type full-length), His-tagged (human) (UniProt Q14145); assay: AlphaScreen; 9.6 nM FLAG-NRF2, 150 nM His-KEAP1 (same value as in Table 27)
[21] = target: KEAP1 (wild-type full-length), His-tagged (human) (UniProt Q14145); assay: AlphaScreen; 9.6 nM FLAG-NRF2, 150 nM His-KEAP1; Rep 2
[22] = target: KEAP1 (wild-type full-length), His-tagged (human) (UniProt Q14145); assay: AlphaScreen; 9.6 nM FLAG-NRF2, 150 nM His-KEAP1; signal against NRF2 only
[23] = target: KEAP1 (wild-type full-length), His-tagged (human) (UniProt Q14145); assay: AlphaScreen; 19.2 nM FLAG-NRF2, 150 nM His-KEAP1; Rep 2
[24] = target: KEAP1 (wild-type full-length), His-tagged (human) (UniProt Q14145); assay: AlphaScreen; 2.4 nM FLAG-NRF2, 150 nM His-KEAP1; Rep 1
[25] = target: KEAP1 (wild-type full-length), His-tagged (human) (UniProt Q14145); assay: AlphaScreen; NRF2 Q75R 1228.8 nM, KEAP1 150 nM; signal against NRF2-only control
[26] = target: KEAP1 (wild-type full-length), His-tagged (human) (UniProt Q14145); assay: AlphaScreen; FLAG-NRF2 Q75R 38.4 nM, His-KEAP1 150 nM; Rep 1
[27] = target: KEAP1 (wild-type full-length), His-tagged (human) (UniProt Q14145); assay: AlphaScreen; FLAG-NRF2 Q75R 76.8 nM, His-KEAP1 150 nM; Rep 1

KEAP1 (wild-type full-length), His-tagged (human), sequence (Q14145 2-624 limits assumed): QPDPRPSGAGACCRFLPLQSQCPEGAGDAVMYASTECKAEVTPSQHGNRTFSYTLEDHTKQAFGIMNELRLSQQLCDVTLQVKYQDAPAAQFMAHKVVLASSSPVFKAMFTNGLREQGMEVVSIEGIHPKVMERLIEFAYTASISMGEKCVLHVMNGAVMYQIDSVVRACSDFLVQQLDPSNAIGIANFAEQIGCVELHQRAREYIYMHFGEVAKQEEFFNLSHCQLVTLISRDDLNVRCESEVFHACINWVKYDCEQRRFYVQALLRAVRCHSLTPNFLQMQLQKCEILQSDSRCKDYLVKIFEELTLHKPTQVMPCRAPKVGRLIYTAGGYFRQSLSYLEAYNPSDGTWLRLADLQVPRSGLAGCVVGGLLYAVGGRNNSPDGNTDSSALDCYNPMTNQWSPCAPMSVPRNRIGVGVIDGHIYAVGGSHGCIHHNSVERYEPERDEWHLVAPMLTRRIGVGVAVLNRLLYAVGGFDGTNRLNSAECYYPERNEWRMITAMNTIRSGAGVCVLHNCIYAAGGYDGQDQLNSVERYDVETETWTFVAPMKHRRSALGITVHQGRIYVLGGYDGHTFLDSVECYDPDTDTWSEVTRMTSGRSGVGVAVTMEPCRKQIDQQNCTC

- S/N [1]: 4.1
- % Disruption in Binding [2]: 0%
- Binding Percentage [3]: 100%
- A-counts (NRF2 plus KEAP1) [4]: 1480 A-counts
- S/N [5]: 2.2
- S/N [6]: 0.9
- A-counts [7]: 2000 A-counts
- A-counts (NRF2 plus KEAP1) [8]: 754 A-counts
- A-counts [9]: 1160 A-counts
- A-counts [10]: 3100 A-counts
- A-counts (NRF2 plus KEAP1) [11]: 1480 A-counts
- A-counts (NRF2 plus KEAP1) [12]: 2640 A-counts
- S/N [13]: 2.8
- A-counts [14]: 1970 A-counts
B1: NRF2 isoform 1 (wild-type full-length), FLAG-tagged (protein)
chain: MMDLELPPPGLPSQQDMDLIDILWRQDIDLGVSREVFDFSQRRKEYELEKQKKLEKERQEQLQKEQEKAFFAQLQLDEETGEFLPIQPAQHIQSETSGSANYSQVAHIPKSDALYFDDCMQLLAQTFPFVDDNEVSSATFQSLVPDIPGHIESPVFIATNQAQSPETSVAQVAPVDLDGMQQDIEQVWEELLSIPELQCLNIENDKLVETTMVPSPEAKLTEVDNYHFYSSIPSMEKEVGNCSPHFLNAFEDSFSSILSTEDPNQLTVNSLNSDATVNTDFGDEFYSAFIAEPSISNSMPSPATLSHSLSELLNGPIDVSDLSLCKAFNQNHPESTAEFNDSDSGISLNTSPSVASPEHSVESSSYGDTLLGLSDSEVEELDSAPGSVKQNGPKTPVHSSGDMVQPLSPSQGQSTHVHDAQCENTPEKELPVSPGHRKTPFTKDKHSSRLEAHLTRDELRAKALHIPFPVEKIINLPVVDFNEMMSKEQFNEAQLALIRDIRRRGKNKVAAQNCRKRKLENIVELEQDLDHLKDEKEKLLKEKGENDKSLHLLKKQLSTLYLEVFSMLRDEDGKPYSPSEYSLQQTRDGNVFLVPKSKKPDVKKN

- A-counts (NRF2 plus KEAP1) [15]: 2610 A-counts
- S/N [16]: 2.3
- S/N [17]: 3.6
- A-counts (NRF2 plus KEAP1) [18]: 2860 A-counts
B2: NRF2 isoform 1 (I86V full-length), FLAG-tagged (protein)
chain: MMDLELPPPGLPSQQDMDLIDILWRQDIDLGVSREVFDFSQRRKEYELEKQKKLEKERQEQLQKEQEKAFFAQLQLDEETGEFLPVQPAQHIQSETSGSANYSQVAHIPKSDALYFDDCMQLLAQTFPFVDDNEVSSATFQSLVPDIPGHIESPVFIATNQAQSPETSVAQVAPVDLDGMQQDIEQVWEELLSIPELQCLNIENDKLVETTMVPSPEAKLTEVDNYHFYSSIPSMEKEVGNCSPHFLNAFEDSFSSILSTEDPNQLTVNSLNSDATVNTDFGDEFYSAFIAEPSISNSMPSPATLSHSLSELLNGPIDVSDLSLCKAFNQNHPESTAEFNDSDSGISLNTSPSVASPEHSVESSSYGDTLLGLSDSEVEELDSAPGSVKQNGPKTPVHSSGDMVQPLSPSQGQSTHVHDAQCENTPEKELPVSPGHRKTPFTKDKHSSRLEAHLTRDELRAKALHIPFPVEKIINLPVVDFNEMMSKEQFNEAQLALIRDIRRRGKNKVAAQNCRKRKLENIVELEQDLDHLKDEKEKLLKEKGENDKSLHLLKKQLSTLYLEVFSMLRDEDGKPYSPSEYSLQQTRDGNVFLVPKSKKPDVKKN

- A-counts [19]: 1400 A-counts
- S/N [20]: 3.4
- A-counts [21]: 1560 A-counts
- S/N [22]: 3.4
- A-counts [23]: 1700 A-counts
- A-counts [24]: 697 A-counts
B3: NRF2 isoform 1 (I28V full-length), FLAG-tagged (protein)
chain: MMDLELPPPGLPSQQDMDLIDILWRQDVDLGVSREVFDFSQRRKEYELEKQKKLEKERQEQLQKEQEKAFFAQLQLDEETGEFLPIQPAQHIQSETSGSANYSQVAHIPKSDALYFDDCMQLLAQTFPFVDDNEVSSATFQSLVPDIPGHIESPVFIATNQAQSPETSVAQVAPVDLDGMQQDIEQVWEELLSIPELQCLNIENDKLVETTMVPSPEAKLTEVDNYHFYSSIPSMEKEVGNCSPHFLNAFEDSFSSILSTEDPNQLTVNSLNSDATVNTDFGDEFYSAFIAEPSISNSMPSPATLSHSLSELLNGPIDVSDLSLCKAFNQNHPESTAEFNDSDSGISLNTSPSVASPEHSVESSSYGDTLLGLSDSEVEELDSAPGSVKQNGPKTPVHSSGDMVQPLSPSQGQSTHVHDAQCENTPEKELPVSPGHRKTPFTKDKHSSRLEAHLTRDELRAKALHIPFPVEKIINLPVVDFNEMMSKEQFNEAQLALIRDIRRRGKNKVAAQNCRKRKLENIVELEQDLDHLKDEKEKLLKEKGENDKSLHLLKKQLSTLYLEVFSMLRDEDGKPYSPSEYSLQQTRDGNVFLVPKSKKPDVKKN

- S/N [25]: 0.9
- A-counts (NRF2 plus KEAP1) [26]: 1200 A-counts
- A-counts (NRF2 plus KEAP1) [27]: 1110 A-counts
B4: NRF2 isoform 1 (Q75R full-length), FLAG-tagged (protein)
chain: MMDLELPPPGLPSQQDMDLIDILWRQDIDLGVSREVFDFSQRRKEYELEKQKKLEKERQEQLQKEQEKAFFAQLRLDEETGEFLPIQPAQHIQSETSGSANYSQVAHIPKSDALYFDDCMQLLAQTFPFVDDNEVSSATFQSLVPDIPGHIESPVFIATNQAQSPETSVAQVAPVDLDGMQQDIEQVWEELLSIPELQCLNIENDKLVETTMVPSPEAKLTEVDNYHFYSSIPSMEKEVGNCSPHFLNAFEDSFSSILSTEDPNQLTVNSLNSDATVNTDFGDEFYSAFIAEPSISNSMPSPATLSHSLSELLNGPIDVSDLSLCKAFNQNHPESTAEFNDSDSGISLNTSPSVASPEHSVESSSYGDTLLGLSDSEVEELDSAPGSVKQNGPKTPVHSSGDMVQPLSPSQGQSTHVHDAQCENTPEKELPVSPGHRKTPFTKDKHSSRLEAHLTRDELRAKALHIPFPVEKIINLPVVDFNEMMSKEQFNEAQLALIRDIRRRGKNKVAAQNCRKRKLENIVELEQDLDHLKDEKEKLLKEKGENDKSLHLLKKQLSTLYLEVFSMLRDEDGKPYSPSEYSLQQTRDGNVFLVPKSKKPDVKKN
